Molecular target: PSD95, His tagged recombinant (UniProt P78352)
Experiment: BLI

Sequence of PSD95, His tagged recombinant (P78352 whole entry): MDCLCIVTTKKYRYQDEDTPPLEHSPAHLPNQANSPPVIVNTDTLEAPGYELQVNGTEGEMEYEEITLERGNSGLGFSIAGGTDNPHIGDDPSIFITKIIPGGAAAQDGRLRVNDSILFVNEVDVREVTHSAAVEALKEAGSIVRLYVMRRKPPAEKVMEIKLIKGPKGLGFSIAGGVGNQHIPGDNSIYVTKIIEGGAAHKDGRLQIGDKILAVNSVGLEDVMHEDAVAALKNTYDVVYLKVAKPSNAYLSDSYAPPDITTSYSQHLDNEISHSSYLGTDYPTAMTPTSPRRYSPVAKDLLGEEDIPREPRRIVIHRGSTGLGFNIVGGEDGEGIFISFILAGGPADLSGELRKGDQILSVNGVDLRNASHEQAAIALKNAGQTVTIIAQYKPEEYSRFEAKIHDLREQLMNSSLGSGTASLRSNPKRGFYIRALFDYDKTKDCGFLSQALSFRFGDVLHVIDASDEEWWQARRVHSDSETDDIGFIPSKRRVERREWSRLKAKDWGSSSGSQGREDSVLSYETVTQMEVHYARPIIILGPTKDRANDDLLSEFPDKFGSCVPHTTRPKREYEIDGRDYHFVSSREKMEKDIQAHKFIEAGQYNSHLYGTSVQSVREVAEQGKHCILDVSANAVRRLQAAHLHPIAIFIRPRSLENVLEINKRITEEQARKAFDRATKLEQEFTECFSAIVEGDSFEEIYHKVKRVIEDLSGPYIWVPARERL

NS1-SUMO (1918 NS1 covalently fused with SUMO at its C-terminus), His tagged recombinant
Kd: 630 nM

From publication PMC10754036
